Consider 23 variants from the supplement of paper PMC7125110.

First the molecules themselves.
B1: glmS ribozyme (parent)
chain: AUAAAAGCGCCAGAACUACAGAAAUGUAGUUGACGAGGAGGAGGUUUAUCGAAUUUUCGGCGGAUGCCUCCAAA

± gives the standard error. Fewer inactive variants are shown than the library holds.

What all share (settings): with glucosamine-6-phosphate
The variants in data set [1] derive from B1. The experiment in a line: self-cleavage kobs at 40 uM GlcN6P; higher = faster cleavage; RNA array. The method in brief:
(§1)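 Glucosamine-6-phosphate in HEPES/KCl/Mg(OAc)2 buffer, at 40 μM to 10 mM, was flowed over barcoded ribozyme variants transcribed in situ by E. coli RNA polymerase on sequenced MiSeq chips. Tracking was through a hybridised Cy3 probe at 37 °C. kobs, kcat and KM came from exponential decay fits and weighted Michaelis–Menten fits of normalised per-tile medians.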

Data set [2] covers variants of B1. As to the kind of experiment: self-cleavage kobs at 640 uM GlcN6P; higher = faster cleavage; RNA array. The method in brief:
as §1

Data set [3] covers variants of B1. The experiment in a line: self-cleavage kobs at 10000 uM GlcN6P; higher = faster cleavage; RNA array. The method in brief:
as §1

The variants in data set [4] derive from B1. As to the kind of experiment: self-cleavage kobs at 160 uM GlcN6P; higher = faster cleavage; RNA array. The essentials: as §1
Data set [5] covers variants of B1. The experiment in a line: self-cleavage kobs at 2500 uM GlcN6P; higher = faster cleavage; RNA array. The method in brief:
as §1

Take C34U C68G: the “self-cleavage kobs at 40 uM GlcN6P” value with glucosamine-6-phosphate [1] came out at 0.000563 ± 0.00025 s⁻¹. Besides, the “self-cleavage kobs at 640 uM GlcN6P” value in the data set with glucosamine-6-phosphate [2] came out at 0.00228 ± 0.0011 s⁻¹. Further, in the data set with glucosamine-6-phosphate [3], the “self-cleavage kobs at 10000 uM GlcN6P” value is 0.000463 ± 0.00015 s⁻¹.
The corresponding values for C11G G44U are below 1e-05 s⁻¹, below 1e-05 s⁻¹ and below 1e-05 s⁻¹.
C8U A14G C16U: the “self-cleavage kobs at 40 uM GlcN6P” value with glucosamine-6-phosphate [1] is below 1e-05 s⁻¹. Besides, in the data set with glucosamine-6-phosphate [3], the “self-cleavage kobs at 10000 uM GlcN6P” value was below 1e-05 s⁻¹.
On to G13U C50G C70G, for which, in the data set with glucosamine-6-phosphate [1], the “self-cleavage kobs at 40 uM GlcN6P” value worked out at 7.6e-05 ± 2.2e-05 s⁻¹. In addition, the “self-cleavage kobs at 160 uM GlcN6P” value with glucosamine-6-phosphate [4] worked out at 0.000214 ± 5.6e-05 s⁻¹. Besides, the “self-cleavage kobs at 640 uM GlcN6P” value with glucosamine-6-phosphate [2] is 8.28e-05 ± 1.7e-05 s⁻¹. Further, the “self-cleavage kobs at 2500 uM GlcN6P” value with glucosamine-6-phosphate [5] stood at 0.000166 ± 3.6e-05 s⁻¹. The “self-cleavage kobs at 10000 uM GlcN6P” value in the data set with glucosamine-6-phosphate [3] came to 6.1e-05 ± 1.2e-05 s⁻¹.
On to G7C C10A A52C, for which the “self-cleavage kobs at 40 uM GlcN6P” value with glucosamine-6-phosphate [1] was below 1e-05 s⁻¹. Besides, the “self-cleavage kobs at 10000 uM GlcN6P” value with glucosamine-6-phosphate [3] was below 1e-05 s⁻¹.
As to C11G C16A A48C, the “self-cleavage kobs at 40 uM GlcN6P” value in the data set with glucosamine-6-phosphate [1] was below 1e-05 s⁻¹. In addition, the “self-cleavage kobs at 10000 uM GlcN6P” value with glucosamine-6-phosphate [3] is below 1e-05 s⁻¹.
For C8G U55A C61A, the “self-cleavage kobs at 40 uM GlcN6P” value with glucosamine-6-phosphate [1] is below 1e-05 s⁻¹.
For G35C G41A, the “self-cleavage kobs at 40 uM GlcN6P” value with glucosamine-6-phosphate [1] is below 1e-05 s⁻¹. For the same variant, the “self-cleavage kobs at 160 uM GlcN6P” value with glucosamine-6-phosphate [4] was below 1e-05 s⁻¹. Further, the “self-cleavage kobs at 640 uM GlcN6P” value with glucosamine-6-phosphate [2] was below 1e-05 s⁻¹. The “self-cleavage kobs at 2500 uM GlcN6P” value with glucosamine-6-phosphate [5] is below 1e-05 s⁻¹. For the same variant, the “self-cleavage kobs at 10000 uM GlcN6P” value in the data set with glucosamine-6-phosphate [3] is below 1e-05 s⁻¹.
For C10G C11A A42U, the “self-cleavage kobs at 40 uM GlcN6P” value in the data set with glucosamine-6-phosphate [1] is below 1e-05 s⁻¹. For the same variant, the “self-cleavage kobs at 2500 uM GlcN6P” value with glucosamine-6-phosphate [5] was below 1e-05 s⁻¹. For the same variant, in the data set with glucosamine-6-phosphate [3], the “self-cleavage kobs at 10000 uM GlcN6P” value is below 1e-05 s⁻¹.
G37U G51C C71U: the “self-cleavage kobs at 40 uM GlcN6P” value with glucosamine-6-phosphate [1] is below 1e-05 s⁻¹. Further, in the data set with glucosamine-6-phosphate [4], the “self-cleavage kobs at 160 uM GlcN6P” value was below 1e-05 s⁻¹. Also, the “self-cleavage kobs at 640 uM GlcN6P” value in the data set with glucosamine-6-phosphate [2] is below 1e-05 s⁻¹. Also, the “self-cleavage kobs at 10000 uM GlcN6P” value with glucosamine-6-phosphate [3] was below 1e-05 s⁻¹.
In the case of G32U A36U G41A, the “self-cleavage kobs at 40 uM GlcN6P” value with glucosamine-6-phosphate [1] was below 1e-05 s⁻¹. The “self-cleavage kobs at 640 uM GlcN6P” value with glucosamine-6-phosphate [2] is below 1e-05 s⁻¹.
On to G59U G63U, for which the “self-cleavage kobs at 40 uM GlcN6P” value with glucosamine-6-phosphate [1] is below 1e-05 s⁻¹. For the same variant, the “self-cleavage kobs at 160 uM GlcN6P” value in the data set with glucosamine-6-phosphate [4] is below 1e-05 s⁻¹. In addition, the “self-cleavage kobs at 640 uM GlcN6P” value in the data set with glucosamine-6-phosphate [2] was below 1e-05 s⁻¹. The “self-cleavage kobs at 2500 uM GlcN6P” value in the data set with glucosamine-6-phosphate [5] was below 1e-05 s⁻¹.
Regarding G7U A36U U54A G62A, the “self-cleavage kobs at 40 uM GlcN6P” value in the data set with glucosamine-6-phosphate [1] is below 1e-05 s⁻¹.
C10U C11G C16A C50G: in the data set with glucosamine-6-phosphate [1], the “self-cleavage kobs at 40 uM GlcN6P” value worked out at 9.19e-05 ± 2.5e-05 s⁻¹. Also, the “self-cleavage kobs at 640 uM GlcN6P” value with glucosamine-6-phosphate [2] turned out to be 0.000376 ± 9.9e-05 s⁻¹. Moreover, the “self-cleavage kobs at 2500 uM GlcN6P” value in the data set with glucosamine-6-phosphate [5] is 0.000168 ± 3.4e-05 s⁻¹. For the same variant, in the data set with glucosamine-6-phosphate [3], the “self-cleavage kobs at 10000 uM GlcN6P” value amounted to 8e-05 ± 2.2e-05 s⁻¹.
On to C8U G35U, for which, in the data set with glucosamine-6-phosphate [1], the “self-cleavage kobs at 40 uM GlcN6P” value is below 1e-05 s⁻¹. Moreover, the “self-cleavage kobs at 160 uM GlcN6P” value in the data set with glucosamine-6-phosphate [4] was below 1e-05 s⁻¹. In addition, in the data set with glucosamine-6-phosphate [2], the “self-cleavage kobs at 640 uM GlcN6P” value was below 1e-05 s⁻¹. The “self-cleavage kobs at 2500 uM GlcN6P” value with glucosamine-6-phosphate [5] is below 1e-05 s⁻¹. The “self-cleavage kobs at 10000 uM GlcN6P” value with glucosamine-6-phosphate [3] is below 1e-05 s⁻¹.
Consider A33U U65G C71U, for which, in the data set with glucosamine-6-phosphate [1], the “self-cleavage kobs at 40 uM GlcN6P” value is below 1e-05 s⁻¹.
Regarding C16U G60U, in the data set with glucosamine-6-phosphate [1], the “self-cleavage kobs at 40 uM GlcN6P” value was below 1e-05 s⁻¹. Besides, in the data set with glucosamine-6-phosphate [4], the “self-cleavage kobs at 160 uM GlcN6P” value was below 1e-05 s⁻¹. The “self-cleavage kobs at 640 uM GlcN6P” value in the data set with glucosamine-6-phosphate [2] is below 1e-05 s⁻¹.
Consider A6G G9C G59U, for which the “self-cleavage kobs at 40 uM GlcN6P” value in the data set with glucosamine-6-phosphate [1] is below 1e-05 s⁻¹. Further, the “self-cleavage kobs at 2500 uM GlcN6P” value with glucosamine-6-phosphate [5] is below 1e-05 s⁻¹.
As for C10G G29A A48G, in the data set with glucosamine-6-phosphate [1], the “self-cleavage kobs at 40 uM GlcN6P” value is below 1e-05 s⁻¹.
As to C11G G44C G60A, in the data set with glucosamine-6-phosphate [1], the “self-cleavage kobs at 40 uM GlcN6P” value is below 1e-05 s⁻¹. The “self-cleavage kobs at 160 uM GlcN6P” value with glucosamine-6-phosphate [4] is below 1e-05 s⁻¹. Also, in the data set with glucosamine-6-phosphate [3], the “self-cleavage kobs at 10000 uM GlcN6P” value was below 1e-05 s⁻¹.
Regarding A36U C68G C70U, in the data set with glucosamine-6-phosphate [1], the “self-cleavage kobs at 40 uM GlcN6P” value was determined as 8.4e-05 ± 2.2e-05 s⁻¹. For the same variant, in the data set with glucosamine-6-phosphate [3], the “self-cleavage kobs at 10000 uM GlcN6P” value turned out to be 0.000213 ± 4.7e-05 s⁻¹.
For the variant G44U U49G, in the data set with glucosamine-6-phosphate [1], the “self-cleavage kobs at 40 uM GlcN6P” value is below 1e-05 s⁻¹. For the same variant, the “self-cleavage kobs at 160 uM GlcN6P” value with glucosamine-6-phosphate [4] is below 1e-05 s⁻¹. Besides, in the data set with glucosamine-6-phosphate [2], the “self-cleavage kobs at 640 uM GlcN6P” value was below 1e-05 s⁻¹.
Take G7C C10U U30A U46A: in the data set with glucosamine-6-phosphate [1], the “self-cleavage kobs at 40 uM GlcN6P” value was below 1e-05 s⁻¹.
